Experimental data: patent US6362163B1, “Parathyroid hormone-related peptide analogs” (The General Hospital Corporation, priority 1996, dated 2002)
Where no end group is shown, it is not given here.

T1: PTH/PTHrP receptor (Homo sapiens, UniProt Q03431)
T1 construct: expressed in transfected cells; host or cells: COS-7 cells, transient transfection, vector pcDNA-1
T1 sequence (Q03431 27-593): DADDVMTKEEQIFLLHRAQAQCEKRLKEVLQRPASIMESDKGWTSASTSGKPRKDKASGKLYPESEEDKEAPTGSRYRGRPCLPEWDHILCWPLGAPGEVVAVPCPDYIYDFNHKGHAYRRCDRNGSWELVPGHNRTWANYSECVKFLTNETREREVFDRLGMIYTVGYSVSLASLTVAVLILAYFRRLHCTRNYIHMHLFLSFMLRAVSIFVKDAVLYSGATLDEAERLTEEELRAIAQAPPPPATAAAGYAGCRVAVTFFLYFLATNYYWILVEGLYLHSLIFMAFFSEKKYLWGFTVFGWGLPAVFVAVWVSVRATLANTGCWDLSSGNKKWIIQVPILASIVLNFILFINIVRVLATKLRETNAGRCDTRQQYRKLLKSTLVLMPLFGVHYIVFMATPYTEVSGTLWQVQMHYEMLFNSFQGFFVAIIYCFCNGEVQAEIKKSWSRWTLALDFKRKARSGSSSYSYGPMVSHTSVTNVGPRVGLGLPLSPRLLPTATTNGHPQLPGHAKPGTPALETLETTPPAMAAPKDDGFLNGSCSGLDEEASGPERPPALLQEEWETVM

T2: human PTH/PTHrP receptor (human, UniProt Q03431 27-593)
T2 construct: whole, on cells; Transiently expressed on COS-7 cells
T2 sequence (looked up): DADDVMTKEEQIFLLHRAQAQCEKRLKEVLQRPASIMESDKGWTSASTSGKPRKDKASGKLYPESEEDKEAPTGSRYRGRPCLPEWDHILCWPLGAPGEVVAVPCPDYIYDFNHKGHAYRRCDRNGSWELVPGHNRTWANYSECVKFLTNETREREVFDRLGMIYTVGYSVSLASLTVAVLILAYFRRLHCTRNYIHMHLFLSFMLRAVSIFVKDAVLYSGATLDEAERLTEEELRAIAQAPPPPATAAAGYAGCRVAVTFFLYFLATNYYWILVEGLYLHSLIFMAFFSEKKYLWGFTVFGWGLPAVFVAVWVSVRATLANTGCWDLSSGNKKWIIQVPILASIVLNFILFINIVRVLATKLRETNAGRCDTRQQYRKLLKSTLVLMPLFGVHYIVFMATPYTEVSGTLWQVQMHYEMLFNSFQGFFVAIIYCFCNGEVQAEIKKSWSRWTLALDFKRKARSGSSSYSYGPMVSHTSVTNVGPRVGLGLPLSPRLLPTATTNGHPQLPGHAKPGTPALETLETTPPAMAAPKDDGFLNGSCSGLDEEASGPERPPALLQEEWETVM


Legend:
PTH/PTHrP receptor = biological target: T1, PTH/PTHrP receptor; assay: Ligand-induced intracellular cAMP accumulation, COS-7 cells expressing human PTH/PTHrP receptor; type: cell-based; conditions: highest level of cAMP attained; basal 4.6 ± 0.2 not subtracted; 1h at room temperature
Procedure: (§1) The cDNAs encoding the human PTH/PTHrP receptor (Schipani, E. et al., Endocrinology 132:2157-2165 (1993)) and the human PTH-2 receptor (Usdin, T. et al., J. Biol. Chem. 270:15455-15458 (1995)) were carried on the expression vectors pcDNA-1 and pcDNAI/Amp (InVitrogen, San Diego, Calif.), respectively. COS-7 cells were cultured and transfected as described previously (Lee, C. et al., Mol. Endocrinol. 9:1269-1278 (1995)). Cells were transfected in 24-well plates using plasmid DNA (200 ng/well) purified by cesium chloride/ethidium bromide gradient centrifugation. Ligand binding and cAMP accumulation assays were performed three days after transfection, by which time the cell density reached 500,000±100,000 cells/well.
(§2) Transfected COS-7 cells were rinsed with […] of binding buffer. 200 μl of IBMX buffer (DMEM containing 2 mM IBMX, 1 mg/ml bovine serum albumin, 35 mM Hepes-NaOH, pH 7.4) and […] of binding buffer or binding buffer containing various amounts of a PTH or PTHrP analog were then added. The plates were incubated for 60 minutes at room temperature. The buffer was then withdrawn and the cells lysed by placing the plates on powdered dry ice and adding 0.5 ml of 50 mM HCl. The acid lysate was diluted 1/30 in dH2O, and an aliquot (5-50 μl) analyzed for cAMP content by radioimmunoassay. […] The cells were then incubated for 30 minutes at room temperature, and the resulting intracellular cAMP was measured by RIA. Data were analyzed using the AssayZap software (Elsevier Science Publishers BV, Cambridge, United Kingdom).

PTH-2 receptor = biological target: T3, PTH-2 receptor (Homo sapiens, UniProt P49190); assay: Ligand-induced intracellular cAMP accumulation, COS-7 cells expressing human PTH-2 receptor; type: cell-based; conditions: highest level of cAMP attained; basal 5.4 ± 0.3 not subtracted; 1h at room temperature
T3 construct: expressed in transfected cells; host or cells: COS-7 cells, transient transfection, vector pcDNAI/Amp
Procedure: as §1, §2

human PTH-2 receptor [1] = biological target: T4, human PTH-2 receptor (human, UniProt P49190 25-550); assay: cell-based or functional assay
human PTH-2 receptor [2] = biological target: T4, human PTH-2 receptor; assay: radioligand competition (tracer 125I-[Nle8,21,Tyr34]rPTH-(1-34)NH2) on transfected COS-7 cells, RT 2 h
Procedure: (§3) Assays were performed for 2 hours at room temperature. Data are the mean (± s.e.m.) of IC$50$ values obtained from the number of experiments indicated (n).
(§4) Binding reactions were performed as described previously. Id. […] Incubations were at room temperature for 2 hours, except for experiments involving Scatchard analysis, which were performed at 4° C. for 6 hours. At the end of the binding reaction, the cells were rinsed 3 times with 0.5 ml of binding buffer, lysed with 0.5 ml of 5M NaOH, and the entire lysate was counted. […] Estimates of the number of receptors/cell derived from these studies assumed a single class of binding sites and a transfection efficiency of 20% (Abou-Samra, A. B. et al., *Proc. Natl. Acad. Sci* (*USA*) 89:2732–2736 (1992)).

human PTH/PTHrP receptor = biological target: T2, human PTH/PTHrP receptor; assay: as above
Procedure: as §3, §4

T4 sequence (P49190 25-550): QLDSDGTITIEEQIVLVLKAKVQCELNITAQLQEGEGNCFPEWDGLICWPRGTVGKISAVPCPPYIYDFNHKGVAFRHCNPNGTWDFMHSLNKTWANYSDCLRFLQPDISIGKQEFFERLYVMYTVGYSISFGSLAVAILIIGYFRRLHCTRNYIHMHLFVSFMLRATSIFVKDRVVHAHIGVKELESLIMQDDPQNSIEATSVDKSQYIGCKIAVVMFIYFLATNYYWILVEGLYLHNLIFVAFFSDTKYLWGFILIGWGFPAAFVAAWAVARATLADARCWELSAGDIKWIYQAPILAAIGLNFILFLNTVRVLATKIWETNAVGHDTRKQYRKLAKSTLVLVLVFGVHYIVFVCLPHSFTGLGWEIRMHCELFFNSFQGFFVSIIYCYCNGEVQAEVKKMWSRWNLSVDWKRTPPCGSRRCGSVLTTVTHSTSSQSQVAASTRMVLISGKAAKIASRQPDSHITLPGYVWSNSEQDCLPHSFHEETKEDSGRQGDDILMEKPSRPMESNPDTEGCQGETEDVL
T3 sequence (P49190 25-550): as above

cAMP accumulation EC50 (human PTH-2 receptor [1]) [nM] | cAMP accumulation Maximum (human PTH-2 receptor [1]) [pmoles/well] | IC50 (human PTH/PTHrP receptor) [nM] | also measured | Molecule
 |  |  | cAMP accumulation Maximum, PTH/PTHrP receptor (PTH/PTHrP receptor): 133 ± 14 pmoles/well; cAMP accumulation Maximum, PTH-2 receptor (PTH-2 receptor): 6.2 ± 0.4 pmoles/well | hpTHrP-(1-18)/[Y34]hpTH-(19-34)NH2 [Hybrid-5]
0.5 | 65 |  | IC50 (human PTH-2 receptor [2]): 10 nM | AVSEIQLLHDKGKSIQDLRRRFWLHHLIAEIHTAEY-NH2 (also called [Ile^5, Trp^23]PTHrP-(1-36); [Ile^5,Trp^32]PTHrP-(1-36) [sic]) [[I5, W23, Y36]hPTHrP-(1-36)NH2]
7 | 80 |  |  | AVSEIQLLHDKGKSIQDLRRRFFLHHLIAEIHTAEY-NH2 [[I5, Y36]hPTHrP-(1-36)NH2]
0.6 | 81 |  |  | SVSEIQLMHNLGKHLNSMERVEWLRKKLQDVHNY-NH2 [[Tyr^34]hPTH-(1-34)NH2]
> 1000 | 7.1 |  |  | SVSEHQLMHNLGKHLNSMERVEFLRKKLQDVHNY-NH2 [[H5, F23, Y34]hPTH-(1-34)NH2]
> 1000 | 10 |  |  | SVSEHQLMHNLGKHLNSMERVEWLRKKLQDVHNY-NH2 [[H5, Y34]hPTH-(1-34)NH2]
> 1000 | 5.3 |  |  | AVSEHQLLHDKGKSLNSMERVEWLRKKLQDVHNY-NH2 [Hybrid-1 hPTHrP-(1-14)/[Y34]hPTH-(15-34)NH2]
> 1000 | 6.7 |  |  | AVSEHQLLHDKGKSIQDLRRREWLRKKLQDVHNY-NH2 [Hybrid-4 hPTHrP-(1-21)/[Y34]hPTH-(22-34)NH2]
> 1000 | 11 | 1000 |  | AVSEHQLLHDKGKSIQDLRRRFFLRKKLQDVHNY-NH2 (Synthetic PTH/PTHrP hybrid ligand; also called PTHrP-(1-23)/PTH-(24-34)) [Hybrid-3 hPTHrP-(1-23)/[Y34]hPTH-(24-34)NH2]
> 1000 | 6.2 |  | IC50 (human PTH-2 receptor [2]): 500 nM | AVSEHQLLHDKGKSIQDLERVEWLRKKLQDVHNY-NH2 (also: radioiodinated in direct binding test, Synthetic PTH/PTHrP hybrid ligand; also called radioiodinated hybrid-5 peptide) [Hybrid-5 hPTHrP-(1-18)/[Y34]hPTH-(19-34)NH2]
 |  | > 10000 |  | IQDLRRRFWLHHLIAEIHTAEY-NH2 [[W23, Y36]hPTHrP-(15-36)NH2]
 |  | > 10000 |  | IQDLRRREWLHHLIAEIHTAEY-NH2 [[E22, W23, Y36]hPTHrP-(15-36)NH2]
 |  | > 10000 |  | IQDLRRRFFLHHLIAEIHTAEY-NH2 [[Y36]hPTHrP-(15-36)NH2]
